Data set [1] can be described thus: Hypoglycemia monitoring after insulin lispro injection. It counts as in vivo, healthy Japanese adult males. The conditions noted are these: 1.5 or 2.0 U s.c. abdomen, 12 participants, three tests each.
Details of data set [2]: species or system healthy Japanese adult males. The conditions noted are these: in vivo.
The conditions of data set [3]: 0.025‐U/kg dose; cited from earlier work.

With insulin lispro, the “participants who developed severe hypoglycemia (<50 mg/dL)” value in data set [1] is recorded as “None”. In addition, in data set [2], the “Bioequivalence of AUC0–∞” value is recorded as “bioequivalent”, the “Bioequivalence of Cmax” value is listed as “bioequivalent” and the “Bioequivalence of Tmax” value is “bioequivalent”. Also, in data set [3], the “half‐life” value is listed as 53 min and the “time to the maximum insulin concentration (Tmax)” value was “approximately 37 min”.
